# Data taken from US20220403022A1.
# Target: human TIGIT on cells (primary T cells, transfected HEK293 cells, Jurkat reporter cells, NK cells) (human) (UniProt Q495A1)
# Assay: cell-based or functional assay
# human TIGIT on cells (primary T cells, transfected HEK293 cells, Jurkat reporter cells, NK cells) (human), sequence (Q495A1 22-244 limits assumed): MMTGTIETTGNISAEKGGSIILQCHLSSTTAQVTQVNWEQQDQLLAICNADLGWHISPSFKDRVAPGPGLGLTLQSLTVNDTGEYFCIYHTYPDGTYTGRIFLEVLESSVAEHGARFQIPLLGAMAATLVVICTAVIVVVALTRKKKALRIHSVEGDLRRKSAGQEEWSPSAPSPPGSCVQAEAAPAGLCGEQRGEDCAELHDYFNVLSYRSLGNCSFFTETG
substance,measurement,value
Isotype control (antibody),Max RLU (potency),575 RLU
